The values below come from patent publication US20110236874A1, “METHOD FOR FORMATION OF RENAL TUBULES” (priority 2008, published 2011).

Entries after “also recorded” stand apart in the source; their conditions may differ.

Assay [1] relates to primary human renal proximal tubule cells (HPTCs). The experiment in a line: Quantification of α-SMA expression by immunoblotting. Format: cell-based. Conditions: HPTCs on laminin + collagen IV treated with BMP-7 100 ng/ml; control uncoated TCP; FIG. 3. The method, then: Immunoblotting: For immunoblotting, cells were lyzed in 100 μl of heated NuPage LDS sample buffer (Invitrogen). Samples were collected, heated at 95° C. and centrifuged at 10,000 g for 2 minutes to pellet cell debris. Protein concentrations of the supernatants were measured with a NANODROP™ spectrophotometer (Biofrontier, Singapore). Appropriate amounts of the supernatants were loaded onto a NuPage precast gel (4-12%, Invitrogen) with the size marker PAGE Ruler Plus (Fermentas, Hanover, Md., USA). Proteins were transferred to iBlot membranes after electrophoresis. […]
After washing, the membranes were incubated with 0.2 μl/ml of both peroxidase-conjugated sheep anti-mouse antibody and donkey anti-rabbit antibody. […] The films were scanned and analyzed using Adobe Photoshop CS3.
FIG. 3. Quantification of α-SMA expression by immunoblotting. […] Proteins were extracted in each case from 3 replicas, and the extract obtained from each sample was loaded onto a separate lane of the gel. α-SMA (lower bands, 42 kD) and α-tubulin (loading control, upper bands, 50 kD) were detected by immunoblotting. […] (B) The intensities of the bands shown in (A) were determined. […]
In general terms: A western blot detects proteins with antibodies after separation by electrophoresis.

Assay [2] shares this test system. The experiment in a line: α-SMA immunostaining (myofibroblasts) in HPTC cultures on ECM coatings. Format: cell-based. Conditions: BMP-7 100 ng/ml constantly in the medium. The protocol:
Immunostaining, histochemistry, and imaging: Immunostaining was performed as described in Sadoni et al. J Cell Biol 1999; 146(6): 1211-1226. The following primary antibodies were used: rabbit anti-ZO-1 (zonula occludens-1, Invitrogen, Carlsbad, Calif., USA) and mouse anti-α-smooth muscle actin (SMA) (Abcam, Cambridge, UK). Alexa Fluor 488-conjugated anti-rabbit (Invitrogen) and TRITC-conjugated anti-mouse (Invitrogen) secondary antibodies were applied. After immunostaining, cell nuclei were stained with DAPI and cells were mounted with vectashield (Vector Laboratories, Burlingame, Calif.) for microscopy. Histochemical detection of γGTP activity and controls were performed as described in Ryan et al. Kidney Int 1994; 45(1):48-57. Imaging was performed with a Zeiss AxioObserver Z1 microscope (Carl Zeiss, Jena, Germany) using the Zeiss AXIOVISION™ imaging software.
Disintegration of tight junctions after a certain time point is indicated. […]
Based on these observations, the question arose why the monolayer always disintegrated and could not be maintained for longer periods. […] Therefore, the presence of α-SMA-positive cells was monitored in the final experimental series. α-SMA is expressed in myofibroblasts but not in epithelial cells, and was detected in these experiments together with ZO-1 by co-immunostaining (FIG. 2).

B1: BMP-7: Bone morphogenetic protein (BMP)-7 (Sigma), added at 100 ng/ml (protein, UniProt P18075 293-431, looked up)
Bone morphogenetic protein 7: STGSKQRSQNRSKTPKNQEALRMANVAENSSSDQRQACKKHELYVSFRDLGWQDWIIAPEGYAAYYCEGECAFPLNSYMNATNHAIVQTLVHFINPETVPKPCCAPTQLNAISVLYFDDSSNVILKKYRNMVVRACGCH
On to B1, for which the “α-SMA expression by immunoblotting (ratio to α-tubulin) versus control” value in assay [1] is “significant differences compared to the control; also recorded: significantly (p 0.002) higher”. Besides, the “appearance of α-SMA-expressing cells and tight junction formation” value in assay [2] is “high numbers of α-SMA-expressing cells, associated with poor formation of tight junctions”.
